This experiment addresses FLAG-tagged V-ATPase a3 subunit (full-length) (UniProt Q9JHF5). Description: co-IP; FLAG- and V5-tagged proteins co-expressed in HEK293T cells; lysed 48 h after transfection in IP buffer (1% Triton X-100, 10% glycerol, 50 mM Tris-HCl pH 7.4, 150 mM NaCl, 1 mM dithiothreitol, 1 mM EDTA); precipitated with anti-FLAG antibody; western blot with anti-V5 (or anti-A subunit) antibody.

Consider one substance from article PMC9120031.

Chain of UniProt Q9JHF5 (Q9JHF5 entry or part of it): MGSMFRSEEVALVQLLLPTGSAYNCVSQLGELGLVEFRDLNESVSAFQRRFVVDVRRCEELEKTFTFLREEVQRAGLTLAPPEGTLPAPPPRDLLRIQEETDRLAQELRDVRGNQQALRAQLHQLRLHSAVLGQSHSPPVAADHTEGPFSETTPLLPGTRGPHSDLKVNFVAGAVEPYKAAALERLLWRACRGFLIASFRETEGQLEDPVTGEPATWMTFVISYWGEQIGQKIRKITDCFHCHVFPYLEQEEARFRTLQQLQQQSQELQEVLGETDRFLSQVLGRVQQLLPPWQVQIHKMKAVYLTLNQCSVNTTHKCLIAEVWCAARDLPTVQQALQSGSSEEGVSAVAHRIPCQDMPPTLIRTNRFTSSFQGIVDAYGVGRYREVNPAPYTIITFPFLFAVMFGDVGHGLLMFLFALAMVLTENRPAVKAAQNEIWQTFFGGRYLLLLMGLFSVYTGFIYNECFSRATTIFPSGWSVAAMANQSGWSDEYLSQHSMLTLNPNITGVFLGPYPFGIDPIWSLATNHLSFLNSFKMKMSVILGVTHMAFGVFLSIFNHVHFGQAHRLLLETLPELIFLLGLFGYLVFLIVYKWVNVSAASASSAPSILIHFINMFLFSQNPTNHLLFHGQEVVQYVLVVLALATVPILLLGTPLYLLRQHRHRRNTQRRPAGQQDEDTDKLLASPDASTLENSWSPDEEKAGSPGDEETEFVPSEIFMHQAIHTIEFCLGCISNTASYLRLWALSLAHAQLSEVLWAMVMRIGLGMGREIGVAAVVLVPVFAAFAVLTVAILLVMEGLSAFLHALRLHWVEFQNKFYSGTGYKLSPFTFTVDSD

In turn, “V5-tagged GDP-fixed form of Rab7(T22N) (from UniProt P51150 1-207) (natural protein)” came in with a fold increase of Rab7 co-precipitated with a3 when V5-Mon1A and V5-Ccz1 were exogenously expressed, against without them of 3 fold.
